Laboratory results taken from US9260500B2, “Peptide and use thereof” (Takeda Pharmaceutical Company Limited, priority 2009, dated 2016).
Non-standard residues stand in square brackets, D forms with d. Lys(Me2) = CN(C)CCCC[C@H](N)C(=O)O; hArg = N=C(N)NCCCC[C@H](N)C(=O)O; 4Pal = N[C@@H](Cc1ccncc1)C(=O)O; Cha = N[C@@H](CC1CCCCC1)C(=O)O; Cit = NC(=O)NCCC[C@H](N)C(=O)O; dIva = CC[C@@](C)(N)C(=O)O; hSer = N[C@@H](CCO)C(=O)O; Iva = CC[C@](C)(N)C(=O)O; Dab = NCC[C@H](N)C(=O)O; Nva = CCC[C@H](N)C(=O)O; Aib = CC(C)(N)C(=O)O

Assays:
human Y2 receptor [1] = target: T1, human Y2 receptor (Homo sapiens, UniProt P49146); assay: Receptor Binding Assay (RBA) for Human Y2, [125I]-PYY displacement on hY2R/CHO membrane fraction; details: IC50 of test compound/IC50 of PYY(3-36) (PYY(3-36) taken as 1)
T1 construct: expressed in transfected cells; membrane fraction
T1 sequence (P49146 1-381): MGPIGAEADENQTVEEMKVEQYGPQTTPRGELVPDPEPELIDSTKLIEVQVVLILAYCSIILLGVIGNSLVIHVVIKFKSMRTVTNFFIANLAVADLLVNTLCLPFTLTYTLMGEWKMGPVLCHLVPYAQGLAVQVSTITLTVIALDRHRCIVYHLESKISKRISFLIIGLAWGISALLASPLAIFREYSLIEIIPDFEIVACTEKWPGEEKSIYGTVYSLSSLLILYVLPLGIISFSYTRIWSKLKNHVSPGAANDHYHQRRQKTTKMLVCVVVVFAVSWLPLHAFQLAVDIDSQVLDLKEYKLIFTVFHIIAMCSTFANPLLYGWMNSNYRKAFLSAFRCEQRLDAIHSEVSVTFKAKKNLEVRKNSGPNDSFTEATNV
How it was run: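 hY2R stably expressed in CHO/dhfr− cells; membrane fraction prepared from cells disrupted in 10 mM NaHCO3, 5 mM EDTA buffer with protease inhibitors. Binding read as displacement of [125I]-PYY.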

human Y2 receptor [2] = target: T1, human Y2 receptor; assay: Human Y2 Receptor G Protein Binding Assay (GBA), [35S]GTPγS; assay type: biochemical; details: EC50 of test compound/EC50 of PYY(3-36) (PYY3-36 taken as 1), hY2R/CHO membrane fraction
How it was run: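 Agonism measured as [35S]GTPγS binding, read by GF/C filtration and scintillation counting after 120 min at room temperature, using human Y2 membranes at 1 μg protein/mL in pH 7.4 Tris/MgCl2/NaCl/GDP buffer. Compound serially diluted 100 μM–1 nM; EC50 normalized to PYY(3-36) (ratio = compound/PYY).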

| Substance | RBA IC50 Ratio (human Y2 receptor [1]) | GBA EC50 Ratio (human Y2 receptor [2]) |
| --- | --- | --- |
| Ac-[D-Pro24, Cha27,28,36, Dab30, Aib31]-PYY(23-36) (Ac-S[dP]RH[Cha][Cha]N[Dab][Aib]TRQR[Cha]-NH2; SMILES CC(=O)N[C@@H](CO)C(=O)N1CCC[C@@H]1C(=O)N[C@@H](CCCNC(=N)N)C(=O)N[C@@H](Cc1c[nH]cn1)C(=O)N[C@@H](CC1CCCCC1)C(=O)N[C@@H](CC1CCCCC1)C(=O)N[C@@H](CC(N)=O)C(=O)N[C@@H](CCN)C(=O)NC(C)(C)C(=O)N[C@H](C(=O)N[C@@H](CCCNC(=N)N)C(=O)N[C@@H](CCC(N)=O)C(=O)N[C@@H](CCCNC(=N)N)C(=O)N[C@@H](CC1CCCCC1)C(N)=O)[C@@H](C)O) [compound No. 165] | 2.6 | 1.6 |
| Ac-[D-Pro24, Cha27,28,36, Iva30, Aib31]-PYY(23-36) (Ac-S[dP]RH[Cha][Cha]N[Iva][Aib]TRQR[Cha]-NH2; SMILES CC[C@](C)(NC(=O)[C@H](CC(N)=O)NC(=O)[C@H](CC1CCCCC1)NC(=O)[C@H](CC1CCCCC1)NC(=O)[C@H](Cc1c[nH]cn1)NC(=O)[C@H](CCCNC(=N)N)NC(=O)[C@H]1CCCN1C(=O)[C@H](CO)NC(C)=O)C(=O)NC(C)(C)C(=O)N[C@H](C(=O)N[C@@H](CCCNC(=N)N)C(=O)N[C@@H](CCC(N)=O)C(=O)N[C@@H](CCCNC(=N)N)C(=O)N[C@@H](CC1CCCCC1)C(N)=O)[C@@H](C)O) [compound No. 202] | 43 | 20 |
| Ac-[D-Pro24, Cha27,28,36, Lys(Me2)30, Aib31]-PYY(23-36) (Ac-S[dP]RH[Cha][Cha]N[Lys(Me2)][Aib]TRQR[Cha]-NH2; SMILES CC(=O)N[C@@H](CO)C(=O)N1CCC[C@@H]1C(=O)N[C@@H](CCCNC(=N)N)C(=O)N[C@@H](Cc1c[nH]cn1)C(=O)N[C@@H](CC1CCCCC1)C(=O)N[C@@H](CC1CCCCC1)C(=O)N[C@@H](CC(N)=O)C(=O)N[C@@H](CCCCN(C)C)C(=O)NC(C)(C)C(=O)N[C@H](C(=O)N[C@@H](CCCNC(=N)N)C(=O)N[C@@H](CCC(N)=O)C(=O)N[C@@H](CCCNC(=N)N)C(=O)N[C@@H](CC1CCCCC1)C(N)=O)[C@@H](C)O) [compound No. 166] | 0.8 | 0.7 |
| Ac-[D-Pro24, Cit25, Cha27,36, Aib28,31, Lys30]-PYY(23-36) (Ac-S[dP][Cit]H[Cha][Aib]NK[Aib]TRQR[Cha]-NH2; SMILES CC(=O)N[C@@H](CO)C(=O)N1CCC[C@@H]1C(=O)N[C@@H](CCCNC(N)=O)C(=O)N[C@@H](Cc1c[nH]cn1)C(=O)N[C@@H](CC1CCCCC1)C(=O)NC(C)(C)C(=O)N[C@@H](CC(N)=O)C(=O)N[C@@H](CCCCN)C(=O)NC(C)(C)C(=O)N[C@H](C(=O)N[C@@H](CCCNC(=N)N)C(=O)N[C@@H](CCC(N)=O)C(=O)N[C@@H](CCCNC(=N)N)C(=O)N[C@@H](CC1CCCCC1)C(N)=O)[C@@H](C)O) [compound No. 226] | 6.2 | 4.6 |
| Ac-[D-Pro24, Cit25, Pya(4)26, Cha27,36, Aib28,31, Lys30]-PYY(23-36) [compound No. 225] | 2.8 | 2.2 |
| Ac-[D-Pro24, Cit26, Cha27,28,36, Aib31]-PYY(23-36) (Ac-S[dP]R[Cit][Cha][Cha]NL[Aib]TRQR[Cha]-NH2; SMILES CC(=O)N[C@@H](CO)C(=O)N1CCC[C@@H]1C(=O)N[C@@H](CCCNC(=N)N)C(=O)N[C@@H](CCCNC(N)=O)C(=O)N[C@@H](CC1CCCCC1)C(=O)N[C@@H](CC1CCCCC1)C(=O)N[C@@H](CC(N)=O)C(=O)N[C@@H](CC(C)C)C(=O)NC(C)(C)C(=O)N[C@H](C(=O)N[C@@H](CCCNC(=N)N)C(=O)N[C@@H](CCC(N)=O)C(=O)N[C@@H](CCCNC(=N)N)C(=O)N[C@@H](CC1CCCCC1)C(N)=O)[C@@H](C)O) [compound No. 152] | 5.5 | 1.7 |
| Ac-[D-Pro24, D-Iva25, Cha27,28,36, Aib31]-PYY(23-36) (Ac-S[dP][dIva]H[Cha][Cha]NL[Aib]TRQR[Cha]-NH2; SMILES CC[C@@](C)(NC(=O)[C@H]1CCCN1C(=O)[C@H](CO)NC(C)=O)C(=O)N[C@@H](Cc1c[nH]cn1)C(=O)N[C@@H](CC1CCCCC1)C(=O)N[C@@H](CC1CCCCC1)C(=O)N[C@@H](CC(N)=O)C(=O)N[C@@H](CC(C)C)C(=O)NC(C)(C)C(=O)N[C@H](C(=O)N[C@@H](CCCNC(=N)N)C(=O)N[C@@H](CCC(N)=O)C(=O)N[C@@H](CCCNC(=N)N)C(=O)N[C@@H](CC1CCCCC1)C(N)=O)[C@@H](C)O) [compound No. 182] | 14 | 11 |
| Ac-[D-Pro24, D-Iva26, Cha27,28,36, Aib31]-PYY(23-36) (Ac-S[dP]R[dIva][Cha][Cha]NL[Aib]TRQR[Cha]-NH2; SMILES CC[C@@](C)(NC(=O)[C@H](CCCNC(=N)N)NC(=O)[C@H]1CCCN1C(=O)[C@H](CO)NC(C)=O)C(=O)N[C@@H](CC1CCCCC1)C(=O)N[C@@H](CC1CCCCC1)C(=O)N[C@@H](CC(N)=O)C(=O)N[C@@H](CC(C)C)C(=O)NC(C)(C)C(=O)N[C@H](C(=O)N[C@@H](CCCNC(=N)N)C(=O)N[C@@H](CCC(N)=O)C(=O)N[C@@H](CCCNC(=N)N)C(=O)N[C@@H](CC1CCCCC1)C(N)=O)[C@@H](C)O) [compound No. 181] | 19 | 13 |
| Ac-[D-Pro24, Har25, Cha27,36, Aib28,31, Lys30]-PYY(23-36) (Ac-S[dP][hArg]H[Cha][Aib]NK[Aib]TRQR[Cha]-NH2; SMILES CC(=O)N[C@@H](CO)C(=O)N1CCC[C@@H]1C(=O)N[C@@H](CCCCNC(=N)N)C(=O)N[C@@H](Cc1c[nH]cn1)C(=O)N[C@@H](CC1CCCCC1)C(=O)NC(C)(C)C(=O)N[C@@H](CC(N)=O)C(=O)N[C@@H](CCCCN)C(=O)NC(C)(C)C(=O)N[C@H](C(=O)N[C@@H](CCCNC(=N)N)C(=O)N[C@@H](CCC(N)=O)C(=O)N[C@@H](CCCNC(=N)N)C(=O)N[C@@H](CC1CCCCC1)C(N)=O)[C@@H](C)O) [compound No. 291] | 1.2 | 2.7 |
| Ac-[D-Pro24, Har25, Pya(4)26, Cha27,36, Aib28,31, Lys30]-PYY(23-36) [compound No. 289] | 0.82 | 1.4 |
| Ac-[D-Pro24, Hse26, Cha27,36, Aib28,31]-PYY(23-36) (Ac-S[dP]R[hSer][Cha][Aib]NL[Aib]TRQR[Cha]-NH2; SMILES CC(=O)N[C@@H](CO)C(=O)N1CCC[C@@H]1C(=O)N[C@@H](CCCNC(=N)N)C(=O)N[C@@H](CCO)C(=O)N[C@@H](CC1CCCCC1)C(=O)NC(C)(C)C(=O)N[C@@H](CC(N)=O)C(=O)N[C@@H](CC(C)C)C(=O)NC(C)(C)C(=O)N[C@H](C(=O)N[C@@H](CCCNC(=N)N)C(=O)N[C@@H](CCC(N)=O)C(=O)N[C@@H](CCCNC(=N)N)C(=O)N[C@@H](CC1CCCCC1)C(N)=O)[C@@H](C)O) [compound No. 128] | 11 | 5.4 |
| Ac-[D-Pro24, Iva25, Cha27,28,36, Aib31]-PYY(23-36) (Ac-S[dP][Iva]H[Cha][Cha]NL[Aib]TRQR[Cha]-NH2; SMILES CC[C@](C)(NC(=O)[C@H]1CCCN1C(=O)[C@H](CO)NC(C)=O)C(=O)N[C@@H](Cc1c[nH]cn1)C(=O)N[C@@H](CC1CCCCC1)C(=O)N[C@@H](CC1CCCCC1)C(=O)N[C@@H](CC(N)=O)C(=O)N[C@@H](CC(C)C)C(=O)NC(C)(C)C(=O)N[C@H](C(=O)N[C@@H](CCCNC(=N)N)C(=O)N[C@@H](CCC(N)=O)C(=O)N[C@@H](CCCNC(=N)N)C(=O)N[C@@H](CC1CCCCC1)C(N)=O)[C@@H](C)O) [compound No. 177] | 4.5 | 3.7 |
| Ac-[D-Pro24, Iva25, Cha27,36, Aib28,31, Lys30]-PYY(23-36) (Ac-S[dP][Iva]H[Cha][Aib]NK[Aib]TRQR[Cha]-NH2; SMILES CC[C@](C)(NC(=O)[C@H]1CCCN1C(=O)[C@H](CO)NC(C)=O)C(=O)N[C@@H](Cc1c[nH]cn1)C(=O)N[C@@H](CC1CCCCC1)C(=O)NC(C)(C)C(=O)N[C@@H](CC(N)=O)C(=O)N[C@@H](CCCCN)C(=O)NC(C)(C)C(=O)N[C@H](C(=O)N[C@@H](CCCNC(=N)N)C(=O)N[C@@H](CCC(N)=O)C(=O)N[C@@H](CCCNC(=N)N)C(=O)N[C@@H](CC1CCCCC1)C(N)=O)[C@@H](C)O) [compound No. 239] | 8.8 | 5.2 |
| Ac-[D-Pro24, Iva25, Pya(4)26, Cha27,36, Nva28, Aib31, Lys30]-PYY(23-36) (Ac-S[dP][Iva][4Pal][Cha][Nva]NK[Aib]TRQR[Cha]-NH2; SMILES CCC[C@H](NC(=O)[C@H](CC1CCCCC1)NC(=O)[C@H](Cc1ccncc1)NC(=O)[C@](C)(CC)NC(=O)[C@H]1CCCN1C(=O)[C@H](CO)NC(C)=O)C(=O)N[C@@H](CC(N)=O)C(=O)N[C@@H](CCCCN)C(=O)NC(C)(C)C(=O)N[C@H](C(=O)N[C@@H](CCCNC(=N)N)C(=O)N[C@@H](CCC(N)=O)C(=O)N[C@@H](CCCNC(=N)N)C(=O)N[C@@H](CC1CCCCC1)C(N)=O)[C@@H](C)O) [compound No. 352] | 1.6 | 1.3 |
